Target: ASF1 (Homo sapiens, UniProt Q9Y294)
Sequence (Q9Y294 whole entry): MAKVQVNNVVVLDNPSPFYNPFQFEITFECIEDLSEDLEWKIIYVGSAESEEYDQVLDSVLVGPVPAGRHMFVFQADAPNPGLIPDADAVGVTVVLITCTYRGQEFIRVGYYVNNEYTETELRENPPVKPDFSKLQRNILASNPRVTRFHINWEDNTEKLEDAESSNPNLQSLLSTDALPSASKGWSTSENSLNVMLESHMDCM

Kd: ~2000 nM
B1: TLK2 (protein)
chain: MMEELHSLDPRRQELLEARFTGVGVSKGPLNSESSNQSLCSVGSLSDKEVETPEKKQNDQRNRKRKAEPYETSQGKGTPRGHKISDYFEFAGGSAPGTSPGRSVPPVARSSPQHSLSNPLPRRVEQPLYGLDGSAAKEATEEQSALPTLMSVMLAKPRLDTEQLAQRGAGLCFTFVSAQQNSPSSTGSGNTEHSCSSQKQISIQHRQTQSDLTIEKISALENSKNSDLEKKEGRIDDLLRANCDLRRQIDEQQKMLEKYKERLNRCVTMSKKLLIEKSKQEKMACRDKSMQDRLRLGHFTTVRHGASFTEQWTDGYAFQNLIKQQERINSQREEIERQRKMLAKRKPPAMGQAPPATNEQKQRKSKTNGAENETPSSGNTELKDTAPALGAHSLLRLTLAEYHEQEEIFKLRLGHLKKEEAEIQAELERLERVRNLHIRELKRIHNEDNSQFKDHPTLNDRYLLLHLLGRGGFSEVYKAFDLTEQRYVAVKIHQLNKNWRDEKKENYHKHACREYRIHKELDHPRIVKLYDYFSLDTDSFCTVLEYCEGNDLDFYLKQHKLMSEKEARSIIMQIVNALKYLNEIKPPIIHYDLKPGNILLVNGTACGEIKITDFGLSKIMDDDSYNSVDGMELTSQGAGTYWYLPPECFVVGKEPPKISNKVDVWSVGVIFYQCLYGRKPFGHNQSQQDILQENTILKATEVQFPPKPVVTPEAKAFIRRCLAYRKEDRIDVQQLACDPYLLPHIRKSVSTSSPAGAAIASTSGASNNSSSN

From publication PMC8826447 (2022)
